Source: publication PMC7327521 (Journal of Molecular Biology, 2020)
Square brackets hold non-standard residues; d marks the D form. Ends that are not written are not given here. pY = N[C@@H](Cc1ccc(OP(=O)(O)O)cc1)C(=O)O

Experiments:
Experiment in all cases: fluorescence polarisation
Spt6-tSH2 S1283A = biological target: T1, Spt6-tSH2 S1283A (C. glabrata, UniProt Q6FLB1 1250-1444, S1283A)
T1 sequence (looked up): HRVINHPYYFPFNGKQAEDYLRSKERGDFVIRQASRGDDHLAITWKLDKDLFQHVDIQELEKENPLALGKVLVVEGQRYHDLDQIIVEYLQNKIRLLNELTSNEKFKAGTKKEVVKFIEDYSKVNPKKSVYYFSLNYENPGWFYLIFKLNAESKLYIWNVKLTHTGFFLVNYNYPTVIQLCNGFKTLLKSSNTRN

Spt6-tSH2 R1281A = biological target: T2, Spt6-tSH2 R1281A (C. glabrata, UniProt Q6FLB1 1250-1444, R1281A)
T2 sequence (looked up): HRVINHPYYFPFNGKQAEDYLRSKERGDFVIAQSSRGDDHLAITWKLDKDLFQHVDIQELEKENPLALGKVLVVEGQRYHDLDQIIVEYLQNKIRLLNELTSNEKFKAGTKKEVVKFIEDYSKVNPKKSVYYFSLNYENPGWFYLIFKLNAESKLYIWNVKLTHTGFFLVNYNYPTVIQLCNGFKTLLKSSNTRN

Spt6-tSH2 K1354E = biological target: T3, Spt6-tSH2 K1354E (C. glabrata, UniProt Q6FLB1 1250-1444, K1354E)
T3 sequence (looked up): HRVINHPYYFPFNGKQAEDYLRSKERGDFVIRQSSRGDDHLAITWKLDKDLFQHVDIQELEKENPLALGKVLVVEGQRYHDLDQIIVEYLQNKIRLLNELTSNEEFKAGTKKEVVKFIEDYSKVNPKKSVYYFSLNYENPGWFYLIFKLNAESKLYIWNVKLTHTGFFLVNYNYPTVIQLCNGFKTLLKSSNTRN

Spt6-tSH2 R1281A/R1285A = biological target: T4, Spt6-tSH2 R1281A/R1285A (C. glabrata, UniProt Q6FLB1 1250-1444, R1281A | R1285A)
T4 sequence (looked up): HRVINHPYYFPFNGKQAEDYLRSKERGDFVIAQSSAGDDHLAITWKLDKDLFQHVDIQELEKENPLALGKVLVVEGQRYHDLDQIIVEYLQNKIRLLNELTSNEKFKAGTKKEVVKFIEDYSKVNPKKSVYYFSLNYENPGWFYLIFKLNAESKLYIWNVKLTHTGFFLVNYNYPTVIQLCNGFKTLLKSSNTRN

Spt6-tSH2 R1285A = biological target: T5, Spt6-tSH2 R1285A (C. glabrata, UniProt Q6FLB1 1250-1444, R1285A)
T5 sequence (looked up): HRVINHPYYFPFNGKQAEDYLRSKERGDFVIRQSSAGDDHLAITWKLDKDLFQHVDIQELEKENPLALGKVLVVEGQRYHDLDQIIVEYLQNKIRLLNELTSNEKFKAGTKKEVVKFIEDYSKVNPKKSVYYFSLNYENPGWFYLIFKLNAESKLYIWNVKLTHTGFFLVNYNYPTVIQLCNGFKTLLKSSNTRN

Spt6-tSH2 K1360A = biological target: T6, Spt6-tSH2 K1360A (C. glabrata, UniProt Q6FLB1 1250-1444, K1360A)
T6 sequence (looked up): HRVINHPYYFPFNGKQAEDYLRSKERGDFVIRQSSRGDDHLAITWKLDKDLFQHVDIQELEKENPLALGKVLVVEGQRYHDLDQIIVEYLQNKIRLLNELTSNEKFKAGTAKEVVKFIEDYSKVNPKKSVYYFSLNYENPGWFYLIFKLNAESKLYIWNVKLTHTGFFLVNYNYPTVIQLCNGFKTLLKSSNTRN

Spt6-tSH2 K1434A = biological target: T7, Spt6-tSH2 K1434A (C. glabrata, UniProt Q6FLB1 1250-1444, K1434A)
T7 sequence (looked up): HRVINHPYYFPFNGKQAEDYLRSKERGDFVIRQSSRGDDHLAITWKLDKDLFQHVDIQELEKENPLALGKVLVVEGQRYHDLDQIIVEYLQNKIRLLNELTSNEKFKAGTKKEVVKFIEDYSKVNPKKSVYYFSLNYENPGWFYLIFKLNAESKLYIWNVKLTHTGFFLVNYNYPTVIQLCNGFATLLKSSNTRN

[1] = biological target: T8, tandem SH2 domain of C. glabrata Spt6 (Spt6-tSH2) (C. glabrata, UniProt Q6FLB1 1250-1444)
T8 sequence (looked up): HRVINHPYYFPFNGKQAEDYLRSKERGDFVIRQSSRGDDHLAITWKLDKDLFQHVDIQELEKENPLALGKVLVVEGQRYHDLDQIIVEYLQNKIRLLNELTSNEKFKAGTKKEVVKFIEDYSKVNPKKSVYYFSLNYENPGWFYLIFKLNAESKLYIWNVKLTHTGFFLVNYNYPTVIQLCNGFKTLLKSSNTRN

{5,6‑FAM}-PS[pY]SPTSPS[pY]SPTSPS [(pY1-CTD)2, FAM-labelled tyrosine-phosphorylated CTD diheptad]
Kd (Spt6-tSH2 S1283A): 5.4 µM
Kd (Spt6-tSH2 R1281A): 17.6 µM
Kd (Spt6-tSH2 K1354E): 16.3 µM
Kd (Spt6-tSH2 R1281A/R1285A): 11.6 µM
Kd (Spt6-tSH2 R1285A): 12 µM
Kd (Spt6-tSH2 K1360A): 12.4 µM
Kd (Spt6-tSH2 K1434A): 24 µM
Kd [1]: 5.1 µM
